Assay: soluble on expression in E. coli; label from the status in PepcDB or PDB records
For “MAHHHHHHMPVPVLLDNYAYFILSCKTKRCAVVDPADPTLVLNMLEVVRNLTQIDFMITDILTTHKHWDHAGGNMEMRALSQCSSERCRALLSPELNIYGSEVDRPHACNKLIKGSDELVVAGGGAKVVVLSTPGHTGGSVMFLVGDALPKEGEPQRLALFTGDCVFCGGCGALFEATSVDETLETVDIFNNNRTWVHPATGDIIHTDDVLIYVGHEYTERSLDMILSVQRTANQTGEQSAIATSNYCDTVAQARNGARRLRSCVVADDVYMKVTSMETKAPLHLRACTVPSTVTIEKKVNALLSLKRCVLEEFQGKPYASMAVQRAIYTSTKRNDTG”, the “soluble on expression in E. coli” value was “not soluble”. With “MAHHHHHHMQPLLRVPRAVHPHVERPLLGYLPPPVSHFSTKRNNCTGYDHPRGAPPQLNKTYHSQANFRDTKMEFCQVDLDEFCYKQFDSTKKSCSFIPYDKNEFLDKVNELIRQKKIKVVPGYAGFCKHIFVENFTEATVETIEINNKNRDLIKTDYISRRDNELPVLIRWISKKDVKDIIKAKYLDLILYSREQIEKENKETKTVPNRKSNCLYSIICIKPQNVDYELPMTPITMLRNTLISEGGSGINLNRDKYLESVKYWRHHVSIIDN” the “soluble on expression in E. coli” value was “soluble”. For “MAHHHHHHMRASERVPADDAATRVCPHSLIDSPSPSLMQAASAVATATATSSGIANLKQEASHEERLKVADHTAVKAWSLLNKMWYPDYHMASLAGWMGVPGGLCYHNGFYHVFYQYNPFSENWGPMHWGHMTSEDLVHWQHQPIALAPGELFDHDGCFSGSSVSYNNKLYIFYTGHTWRTESEKGSGNGTMGDGASFYQQQCVAVSSDGVNFEKLGAVVRPPPGYVHFRDPKVWQQDGRWWMVCGARDVTKDLGQLLLFTTEDLLKWDDTNWQVLGMTEDKNVFMWECPDMFRLGQMNVFLYSPQGMRKADYAYRNRFQSGYLLGSWNMSLVTAALSEREAGSPKGTASGSHAIGGPRWLASFDVTQRFREIDRGHDFYAPQTLLTKDGRRLIIGWMDMWESPMPTRGHGWSGCLTLPRELILDPFTGSVRMVPPKELLQLRCAQATILAQRIQESTDVLLVESCTAYELDIAFNMETSTAEKYGLWLGSGAELYVDAQSKRLVLNRHYPQHMLSGYRSCELPIGLLLQLHVFIDRSSIEVFVNNGEATFSSRVFPDEGDRALRVFSVNGTADMVGGTMWKLKATVRH”, the “soluble on expression in E. coli” value was “not soluble”. In the case of “MAHHHHHHMRHMCVTLKRRACTVSFSPFLMSYFQSMLMPYRDSVRSSKSDKASSRTVNEEAKVSLSAFSFLFSEMCTRAHNTPSKASNVEEIEQRLTSLGVLVGARLIMLSSLKDPLELQRRPITIEGALKLFQDKLWSRWFGKPANDLQRETGSDRFFIFDTEPIVLRYVYPSPEYLDGEGRWSINYASFMGGIVEGALKAIGFAAEVLTYHQPEPSKPHQSIFAISFAKHVWDRERRLRG”, the “soluble on expression in E. coli” value is reported as “not soluble”. For “MAHHHHHHMRKAVRALQRRASQQAREVAVAANDMDGETATTQRPSFSLFWVQLTQAKVDVVLPPAQPPTPSAEVEAEEESETAERAAHAGHGGSRDTASAHTAAQFRRVHDTNRRVLRIIEACPDETLIVVLAGRCDGEAGGNHFSRAQGTCFAFVKDSSAPGPRPEELTKLTDENNVSALPRASAGGAAVDNIPLQDASALSTAAVPHSVDRETAMVEHTPLACQQQ”, the “soluble on expression in E. coli” value was “soluble”. With “MAHHHHHHMRKGKSPSSFFSLHKKYLLTGVTILSFIFMFQYKYHEVLTVYEDKTNVQQSSRLFWTRLLFGRTRSRITGRIFNIEIPHSYRLYVYNFFIKYLNINKEEIKYPIESYKSLGDFFSRYIREDTRPIGDLNEYSIVSPCDSEIVDFGELTSNYLDNVKGIKFNIKTFLGSDMIKKYNDDSTSFYYAIFYLSPKKYHHFHAPFNFKYKIRRHISGEVFPVFQGMFKIINNLFDINERVILSGEWKGGHVYYAAISAYNVGNIKIVNDEDLLTNNLRTQLSYMGGDINTKIYDHYKDLEIGDEVGEFKVGSSIIVIFENKKNFKWNVKPNQQISVGERIGGVDQPKQPKNKFIKIRS” the “soluble on expression in E. coli” value was “soluble”. With “MAHHHHHHMRKKLVLPLSIGRGFSSWDDGSDGHEWKSRALAEKRLLALTYLGDVNKRVQIHDAIRLRGEVNKQAIRACELPTFFQTKETNEAENLQEIDYHSLLSMIEGEFEVDTLAHIAPSDANFLKTEFLQCDDSAEVKLLGQWSNLRRDTADYNNYASIPDGERNAWSAWYLRNVRPGKTEND” the “soluble on expression in E. coli” value was “not soluble”. In the case of “MAHHHHHHMRPVIVMLLHEEQDTGAYMIKYLVTRGMDFVMFRCWEERVASLVPKAAGETIRCLPVANKPHHYVPCLVNSTAAPSTESESLVTTSTSLAPVSSNVAEDCRIRAVASFGGSMSVNDELSYFESIRSLMRSCLEKRIPVIGHCLGGQLLSSALGGRIVLSENIEVGWYEMVVEEAEDVKDWFGGRKRFDAFHIHTDSFTIPQGARRIVTGAYCANQAFQVGDQFALGMQFHPEVDEDKVRSLISSQFPTLYTEEELADILRKGAEGAKTPDGRPLVSPGSMTRECIEKCLREGRIEQNRPIADSIYDTWCSGFLF”, the “soluble on expression in E. coli” value is reported as “not soluble”. For “MAHHHHHHMRRVERSSRGEGEDTLATGEANVRTDTTVDVLRRASRHAQGAIETSWMTTRRLQVQGEQLEEIDRALDKMEHDLGVGDDALRRMTWTGRVKRWFTSRRKQPSDGVESSTSSSVPSSSLPIKPQGLREKNQQREGTRGSKRDDVIGCGSSTSHIAMEEEKLLDALLGDVHAMREQATLQGAMLTEHNRRLDVIATKTDAVHNHVNRTKQKVEKML”, the “soluble on expression in E. coli” value was “soluble”. For “MAHHHHHHMRRVVASRKAICEYRLYSQVSPQGYPVTAVTPQQIRRVPFYRHRKLYDLTTRELSEEAIRDFLPPKPAVPAGWSMEHKIGSCRFDLTKTMGADDSAREDLHVVALMEPKKYEQTYRMDNGERNGEEYLVFNLFIKKHQHSGGVEFGLTSIDMELVMDSLVVHSTDREMDYSIGALGPGKTTSVGTSFGQKLNIECRRCRDYRYRGPMLNELDDDLTDEILDYLDERGVNNGFAEYMMAQAHFLEQEEYLNWLRLLKQFAT”, the “soluble on expression in E. coli” value was “not soluble”. For “MAHHHHHHMSANGKISVPEAVVNWLFKVIQPIYNDGRTTFHDSLALLDNFHSLRPRTRVFTHSDGTPQLLLSIYGTISTGEDGSSPHSIPVIMWVPSMYPVKPPFISINLENFDMNTISSSLPIQEYIDSNGWIALPILHCWDPAAMNLIMVVQELMSLLHEPPQDQAP”, the “soluble on expression in E. coli” value was “soluble”. In the case of “MAHHHHHHMSDSALLEGVSFPVEPFAEKHRKILALLAHAATQAVNTRSNEVVFDVLCSSEPSLARLYPEVAVLQGVHQIRRVLRNLQDSQPHVRPMYLKMIVDSLKDMNEMLPDPLLLVIARTVEILEGEGRGFRELEPHLLDLVEYIQVVILRETKLLQCRGTLITLRLRGVPPFVASETESTT”, the “soluble on expression in E. coli” value is reported as “not soluble”. For “MAHHHHHHMSELQSLTPETAFTVASTFLAYYYSEFVKLNELARMSDLYDERSYMTLVDFRDEVPVVAHGRNAVANLLAKLDSTLGQRKVEIITVDTVALPHNCVQVICQGVMYLREYRRVFLHVFMLEPTAYRTKTYHIASDYLRFVDSEKEVIPEGAVVIAADQVAAYLEESRRRVEEEQRRQLLEFQQRIRLQQQQLQMQQQQQQQKAAAMNMPAPASRQSRPAASASRDGGRPARGERKPREPRENRGERKPREPREPRGEHKPREGEEKVAAASPSRLAGEGKKGGERGNRKPAAAANAAKGTADTAAATPAPAAVRKPRRESGPTAAIIMLRVPKKIKLSDIKAELVSQGFSELKDLFWCGRDSAHAVVKFSTVEKATEAFETKPFKIQGESLNLDYYHE”, the “soluble on expression in E. coli” value was “soluble”. With “MAHHHHHHMSFFRMKRRLNFVVKRGIEELWENSFLDNNVDMKKIEYSKTGDAWPCVLLRKKSFEDLHKLYYICLKEKNKLLGEQYFHLQNSTKMLQHGRLKKVKLTMKRILTVLSRRAIHDQCLRAKDMLKKQEEREFYEIQKFKLNEQLLCLKHKMNILKKYNSFSLEQISLTFSIKKIENKIQQIDIILNPLRKETMYLLIPHFKYQRKYSDLPGFISWKKQNIIALRNNMSKLHRLY” the “soluble on expression in E. coli” value was “not soluble”. With “MAHHHHHHMSKSDLFNDAQVPMRATVLRFGDDVEGASYPEAALTIDDAAVPAEAKVEVYHDGDNSGSAHESVPHHAQDLRHDFTSGILNCHESCAVCLDACLCMYCTASAHHNFLMNDTEGLYLPVCWGLFCVDVGLSAVSSYLPSSLHFHTYFMRSAIRRRYNLHSAGAPVNSNTHGSSSSGCDCTTESMLDLLTVCFCLPCAIAQHQREIMHQGDWCGGVFSNRYSLQTPATVHTI” the “soluble on expression in E. coli” value was “not soluble”.
